B1: dynamin-2 (human Dyn2 isoform 1), wild type [human] / GST-tagged SH3 domain of endophilin [mouse] (parent complex)
chain 1: MGNRGMEELIPLVNKLQDAFSSIGQSCHLDLPQIAVVGGQSAGKSSVLENFVGRDFLPRGSGIVTRRPLILQLIFSKTEHAEFLHCKSKKFTDFDEVRQEIEAETDRVTGTNKGISPVPINLRVYSPHVLNLTLIDLPGITKVPVGDQPPDIEYQIKDMILQFISRESSLILAVTPANMDLANSDALKLAKEVDPQGLRTIGVITKLDLMDEGTDARDVLENKLLPLRRGYIGVVNRSQKDIEGKKDIRAALAAERKFFLSHPAYRHMADRMGTPHLQKTLNQQLTNHIRESLPALRSKLQSQLLSLEKEVEEYKNFRPDDPTRKTKALLQMVQQFGVDFEKRIEGSGDQVDTLELSGGARINRIFHERFPFELVKMEFDEKDLRREISYAIKNIHGVRTGLFTPDLAFEAIVKKQVVKLKEPCLKCVDLVIQELINTVRQCTSKLSSYPRLREETERIVTTYIREREGRTKDQILLLIDIEQSYINTNHEDFIGFANAQQRSTQLNKKRAIPNQGEILVIRRGWLTINNISLMKGGSKEYWFVLTAESLSWYKDEEEKEKKYMLPLDNLKIRDVEKGFMSNKHVFAIFNTEQRNVYKDLRQIELACDSQEDVDSWKASFLRAGVYPEKDQAENEDGAQENTFSMDPQLERQVETIRNLVDSYVAIINKSIRDLMPKTIMHLMINNTKAFIHHELLAYLYSSADQSSLMEESADQAQRRDDMLRMYHALKEALNIIGDISTSTVSTPVPPPVDDTWLQSASSHSPTPQRRPVSSIHPPGRPPAVRGPTPGPPLIPVPVGAAASFSAPPIPSRPGPQSVFANSDLFPAPPQIPSRPVRIPPGIPPGVPSRRPPAAPSRPTIIRPAEPSLLD
chain 2: not shown

Variants of: B1
Experiment: GST pulldown; 12 µg GST-endophilin-SH3, 6 µg purified Dyn2; parent: 1; read off a plot

Variant | ratio to parent
chain 1 S848A | ~1.1
chain 1 S848E | ~0.93
